This assay deals with minke whale ACE2, mFc-tagged (minke whale). Nature of the assay: SPR. Background: SPR reads the build-up and loss of mass on a sensor chip optically.

As usually defined, the Kd is the equilibrium constant for the complex coming apart. With “SARS-CoV-2 Omicron BA.1 receptor-binding domain (RBD) (from UniProt P0DTC2) (domain or fragment)”, the equilibrium dissociation constant (Kd) came to 254 nM.

The record behind these values is article PMC9517163.
